T1: human CD70-His (human, UniProt P32970 39-193, limits assumed)
T1 construct: also called 重组CD70蛋白; human CD70-His (Cat#CDL-H82D7); not shown: His tag
T1 sequence (looked up): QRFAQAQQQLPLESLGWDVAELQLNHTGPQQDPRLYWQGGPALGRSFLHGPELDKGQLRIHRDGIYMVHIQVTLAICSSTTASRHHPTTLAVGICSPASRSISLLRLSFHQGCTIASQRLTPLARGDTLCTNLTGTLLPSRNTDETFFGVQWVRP

T2: cyno-CD70-His (cynomolgus monkey, UniProt A0A2K5WTU9 39-190)
T2 construct: also called 食蟹猴CD70蛋白; 猴CD70; not shown: His tag
T2 sequence: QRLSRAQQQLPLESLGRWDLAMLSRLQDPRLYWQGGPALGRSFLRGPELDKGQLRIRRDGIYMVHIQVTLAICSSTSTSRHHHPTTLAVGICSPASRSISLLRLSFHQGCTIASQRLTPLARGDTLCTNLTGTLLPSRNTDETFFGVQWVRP

T3: mFc-CD70
T3 sequence (P32970 whole entry, species assumed, looked up): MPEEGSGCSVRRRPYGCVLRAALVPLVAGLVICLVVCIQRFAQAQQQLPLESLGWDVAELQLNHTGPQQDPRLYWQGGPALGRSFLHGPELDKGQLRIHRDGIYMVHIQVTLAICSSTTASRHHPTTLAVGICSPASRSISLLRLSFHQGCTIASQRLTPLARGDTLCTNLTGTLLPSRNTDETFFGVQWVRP

T4: CD70 on 卵巢癌细胞SKOV3 (UniProt P32970 1-193, limits assumed)
T4 construct: whole, on cells; also called 肿瘤细胞
T4 sequence (looked up): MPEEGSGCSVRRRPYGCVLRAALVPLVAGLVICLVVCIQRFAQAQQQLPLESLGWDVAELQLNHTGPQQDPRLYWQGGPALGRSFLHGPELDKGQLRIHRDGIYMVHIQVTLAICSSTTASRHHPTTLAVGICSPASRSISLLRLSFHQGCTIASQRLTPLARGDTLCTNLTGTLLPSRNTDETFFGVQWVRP

T5: mouse CD70-His (mouse, UniProt O55237 45-195, limits assumed)
T5 construct: also called 鼠CD70; not shown: His tag
T5 sequence (looked up): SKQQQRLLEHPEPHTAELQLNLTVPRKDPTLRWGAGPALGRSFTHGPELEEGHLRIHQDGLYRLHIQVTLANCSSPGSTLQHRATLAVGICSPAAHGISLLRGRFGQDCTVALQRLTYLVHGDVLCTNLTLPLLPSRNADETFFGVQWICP


What was measured:
human CD70-His [1] = target: T1, human CD70-His; assay: ELISA, human CD70-His coated 0.5 ug/ml, HRP-anti-human Fc
cyno-CD70-His = target: T2, cyno-CD70-His; assay: ELISA, cyno-CD70-His coated 0.5 ug/ml, HRP-anti-human Fc
mFc-CD70 = target: T3, mFc-CD70; assay: competition ELISA: blocks mFc-CD70 (75 ng/ml) binding to coated human CD27-His
CD70 on 卵巢癌细胞SKOV3 = target: T4, CD70 on 卵巢癌细胞SKOV3; assay: flow cytometry (MFI) on SKOV3 cells, goat anti-human IgG Fc-FITC
mouse CD70-His = target: T5, mouse CD70-His; assay: ELISA, mouse CD70-His coated 0.5 ug/ml, HRP-anti-human Fc
human CD70-His [2] = target: T1, human CD70-His; assay: BLI (Fortebio), AHC sensor, antibody loaded at 4 ug/ml, human CD70-His trimer 60 nM in solution

EC50 (human CD70-His [1]) [µg/mL]	EC50 (cyno-CD70-His) [ng/mL]	IC50 (mFc-CD70) [µg/mL]	EC50 (CD70 on 卵巢癌细胞SKOV3) [nM]	binding result (mouse CD70-His)	Kd (human CD70-His [2]) [pM]	Binder
0.0244	5.71	0.0576	1.74	no binding	< 1	CHO细胞表达的含有人IgG-Fc结构域的CD70纳米抗体VHH-B6-Fc (Fc fusion, Order VHH then Fc follows the printed name; also called XJ-B6; VHH-B6 (as named in the results of the Fc-format assays); not shown: human IgG Fc domain) QVQLQESGGGSVQAGGSLRLSCVASDLIVNDGCMAWFRQVPGKEHEGVARIAIPTTPGSTLYADSVKGRFTISRDGAKNTLYLQMNSLKPEDTAVYYCAADQWASRGCTAIATIPAEFDYWGQGTQVTVSS
0.0251		0.06	0.374	no binding	< 1	CHO细胞表达的含有人IgG-Fc结构域的CD70纳米抗体VHH-B3-Fc (Fc fusion, Order VHH then Fc follows the printed name; also called XJ-B3; VHH-B3 (as named in the results of the Fc-format assays); not shown: human IgG Fc domain) LQESGGGSVQAGGSLRLSCAASGIIVNDGCMAWFRQVPGKEREGVAGIVIGEYGGGTTYYADSVKGRFTISRDRAKNTLYLQMNSLKPEDTAMYYCAADQWASGGCTSIATFSDEFDYWGQGTQVTVSS
